To fix the notation:
B1: Trastuzumab HCDR3 variant ARYGGYGGYYFDY (Fab, V domains shown)
VH: EVQLVESGGGLVQPGGSLRLSCAASGFNIKDTYIHWVRQAPGKGLEWVARIYPTNGYTRYADSVKGRFTISADTSKNTAYLQMNSLRAEDTAVYYCARYGGYGGYYFDYWGQGTLVTVSS
VL: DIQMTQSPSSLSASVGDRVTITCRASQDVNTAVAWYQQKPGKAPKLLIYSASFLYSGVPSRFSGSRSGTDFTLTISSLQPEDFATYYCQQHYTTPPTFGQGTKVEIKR
B2: Trastuzumab HCDR3 variant ARWDSGGPYYFDS (Fab, V domains shown)
VH: EVQLVESGGGLVQPGGSLRLSCAASGFNIKDTYIHWVRQAPGKGLEWVARIYPTNGYTRYADSVKGRFTISADTSKNTAYLQMNSLRAEDTAVYYCARWDSGGPYYFDSWGQGTLVTVSS
VL: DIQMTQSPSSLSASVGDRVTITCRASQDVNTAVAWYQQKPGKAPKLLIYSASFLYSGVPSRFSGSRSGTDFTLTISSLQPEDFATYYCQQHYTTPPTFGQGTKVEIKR
B3: Trastuzumab HCDR3 variant AATYGGLGDMSSI (Fab, V domains shown)
VH: EVQLVESGGGLVQPGGSLRLSCAASGFNIKDTYIHWVRQAPGKGLEWVARIYPTNGYTRYADSVKGRFTISADTSKNTAYLQMNSLRAEDTAVYYCAATYGGLGDMSSIWGQGTLVTVSS
VL: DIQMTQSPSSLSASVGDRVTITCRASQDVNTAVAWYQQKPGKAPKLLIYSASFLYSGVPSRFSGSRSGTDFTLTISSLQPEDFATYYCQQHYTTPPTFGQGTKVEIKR
B4: Trastuzumab HCDR3 variant AKYGGVGYYAMDY (Fab, V domains shown)
VH: EVQLVESGGGLVQPGGSLRLSCAASGFNIKDTYIHWVRQAPGKGLEWVARIYPTNGYTRYADSVKGRFTISADTSKNTAYLQMNSLRAEDTAVYYCAKYGGVGYYAMDYWGQGTLVTVSS
VL: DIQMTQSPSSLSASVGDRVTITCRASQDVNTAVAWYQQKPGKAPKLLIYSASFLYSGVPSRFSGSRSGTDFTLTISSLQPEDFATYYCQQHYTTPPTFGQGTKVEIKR
B5: Trastuzumab HCDR3 variant ARHFGVASYSFDY (Fab, V domains shown)
VH: EVQLVESGGGLVQPGGSLRLSCAASGFNIKDTYIHWVRQAPGKGLEWVARIYPTNGYTRYADSVKGRFTISADTSKNTAYLQMNSLRAEDTAVYYCARHFGVASYSFDYWGQGTLVTVSS
VL: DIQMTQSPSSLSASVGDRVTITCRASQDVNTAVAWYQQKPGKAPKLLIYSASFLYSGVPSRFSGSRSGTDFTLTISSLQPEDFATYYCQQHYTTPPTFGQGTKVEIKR
B6: Trastuzumab HCDR3 variant AKFAYYGPYHFDP (Fab, V domains shown)
VH: EVQLVESGGGLVQPGGSLRLSCAASGFNIKDTYIHWVRQAPGKGLEWVARIYPTNGYTRYADSVKGRFTISADTSKNTAYLQMNSLRAEDTAVYYCAKFAYYGPYHFDPWGQGTLVTVSS
VL: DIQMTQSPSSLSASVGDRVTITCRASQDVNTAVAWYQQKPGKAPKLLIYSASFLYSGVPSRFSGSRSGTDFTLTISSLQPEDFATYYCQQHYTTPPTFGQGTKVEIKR
B7: Trastuzumab HCDR3 variant ARWGSIGYYAFDH (Fab, V domains shown)
VH: EVQLVESGGGLVQPGGSLRLSCAASGFNIKDTYIHWVRQAPGKGLEWVARIYPTNGYTRYADSVKGRFTISADTSKNTAYLQMNSLRAEDTAVYYCARWGSIGYYAFDHWGQGTLVTVSS
VL: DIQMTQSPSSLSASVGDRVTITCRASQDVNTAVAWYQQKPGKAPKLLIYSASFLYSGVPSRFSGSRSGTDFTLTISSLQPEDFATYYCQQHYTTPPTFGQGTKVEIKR
B8: Trastuzumab HCDR3 variant AKYINAYSYAFFD (Fab, V domains shown)
VH: EVQLVESGGGLVQPGGSLRLSCAASGFNIKDTYIHWVRQAPGKGLEWVARIYPTNGYTRYADSVKGRFTISADTSKNTAYLQMNSLRAEDTAVYYCAKYINAYSYAFFDWGQGTLVTVSS
VL: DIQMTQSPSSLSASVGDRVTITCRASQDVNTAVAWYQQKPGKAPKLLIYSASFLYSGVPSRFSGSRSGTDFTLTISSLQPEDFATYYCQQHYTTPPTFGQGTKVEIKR
B9: Trastuzumab HCDR3 variant ARWGGPGYYAFVW (Fab, V domains shown)
VH: EVQLVESGGGLVQPGGSLRLSCAASGFNIKDTYIHWVRQAPGKGLEWVARIYPTNGYTRYADSVKGRFTISADTSKNTAYLQMNSLRAEDTAVYYCARWGGPGYYAFVWWGQGTLVTVSS
VL: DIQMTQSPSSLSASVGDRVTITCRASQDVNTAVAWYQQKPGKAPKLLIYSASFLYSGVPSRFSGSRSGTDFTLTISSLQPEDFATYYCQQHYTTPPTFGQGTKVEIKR
B10: Trastuzumab HCDR3 variant ARNYYDLYYYFDY (Fab, V domains shown)
VH: EVQLVESGGGLVQPGGSLRLSCAASGFNIKDTYIHWVRQAPGKGLEWVARIYPTNGYTRYADSVKGRFTISADTSKNTAYLQMNSLRAEDTAVYYCARNYYDLYYYFDYWGQGTLVTVSS
VL: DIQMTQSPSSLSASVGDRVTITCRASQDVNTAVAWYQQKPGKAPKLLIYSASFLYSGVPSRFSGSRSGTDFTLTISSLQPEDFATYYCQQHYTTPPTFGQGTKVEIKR
B11: Trastuzumab HCDR3 variant AKYGATGWYYFDY (Fab, V domains shown)
VH: EVQLVESGGGLVQPGGSLRLSCAASGFNIKDTYIHWVRQAPGKGLEWVARIYPTNGYTRYADSVKGRFTISADTSKNTAYLQMNSLRAEDTAVYYCAKYGATGWYYFDYWGQGTLVTVSS
VL: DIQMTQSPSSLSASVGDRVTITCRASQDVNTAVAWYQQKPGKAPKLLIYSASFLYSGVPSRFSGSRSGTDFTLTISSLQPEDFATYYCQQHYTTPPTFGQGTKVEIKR
B12: Trastuzumab HCDR3 variant ARWGEFGPYYFDY (Fab, V domains shown)
VH: EVQLVESGGGLVQPGGSLRLSCAASGFNIKDTYIHWVRQAPGKGLEWVARIYPTNGYTRYADSVKGRFTISADTSKNTAYLQMNSLRAEDTAVYYCARWGEFGPYYFDYWGQGTLVTVSS
VL: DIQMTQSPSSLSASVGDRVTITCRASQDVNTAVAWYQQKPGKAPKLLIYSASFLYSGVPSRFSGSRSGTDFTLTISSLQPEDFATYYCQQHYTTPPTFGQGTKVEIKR
B13: Trastuzumab HCDR3 variant ANDIYIQGYDLNR (Fab, V domains shown)
VH: EVQLVESGGGLVQPGGSLRLSCAASGFNIKDTYIHWVRQAPGKGLEWVARIYPTNGYTRYADSVKGRFTISADTSKNTAYLQMNSLRAEDTAVYYCANDIYIQGYDLNRWGQGTLVTVSS
VL: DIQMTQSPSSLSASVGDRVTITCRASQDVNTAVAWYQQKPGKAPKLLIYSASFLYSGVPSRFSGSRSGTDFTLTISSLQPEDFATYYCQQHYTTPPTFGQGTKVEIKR
B14: Trastuzumab HCDR3 variant AKYLGQEAYAYFS (Fab, V domains shown)
VH: EVQLVESGGGLVQPGGSLRLSCAASGFNIKDTYIHWVRQAPGKGLEWVARIYPTNGYTRYADSVKGRFTISADTSKNTAYLQMNSLRAEDTAVYYCAKYLGQEAYAYFSWGQGTLVTVSS
VL: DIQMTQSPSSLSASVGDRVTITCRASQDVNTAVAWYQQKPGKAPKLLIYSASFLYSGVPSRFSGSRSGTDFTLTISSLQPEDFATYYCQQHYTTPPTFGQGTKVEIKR
B15: Trastuzumab HCDR3 variant ARWGGYGYYYMDV (Fab, V domains shown)
VH: EVQLVESGGGLVQPGGSLRLSCAASGFNIKDTYIHWVRQAPGKGLEWVARIYPTNGYTRYADSVKGRFTISADTSKNTAYLQMNSLRAEDTAVYYCARWGGYGYYYMDVWGQGTLVTVSS
VL: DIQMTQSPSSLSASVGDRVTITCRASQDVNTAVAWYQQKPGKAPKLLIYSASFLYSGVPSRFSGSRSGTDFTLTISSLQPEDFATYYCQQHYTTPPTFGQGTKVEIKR
B16: Trastuzumab HCDR3 variant AKYAYYGDFWGSV (Fab, V domains shown)
VH: EVQLVESGGGLVQPGGSLRLSCAASGFNIKDTYIHWVRQAPGKGLEWVARIYPTNGYTRYADSVKGRFTISADTSKNTAYLQMNSLRAEDTAVYYCAKYAYYGDFWGSVWGQGTLVTVSS
VL: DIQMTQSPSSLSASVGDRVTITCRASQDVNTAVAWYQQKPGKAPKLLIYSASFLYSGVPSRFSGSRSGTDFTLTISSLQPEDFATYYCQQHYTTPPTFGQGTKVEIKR
B17: Trastuzumab HCDR3 variant ARENDGSPGSFEY (Fab, V domains shown)
VH: EVQLVESGGGLVQPGGSLRLSCAASGFNIKDTYIHWVRQAPGKGLEWVARIYPTNGYTRYADSVKGRFTISADTSKNTAYLQMNSLRAEDTAVYYCARENDGSPGSFEYWGQGTLVTVSS
VL: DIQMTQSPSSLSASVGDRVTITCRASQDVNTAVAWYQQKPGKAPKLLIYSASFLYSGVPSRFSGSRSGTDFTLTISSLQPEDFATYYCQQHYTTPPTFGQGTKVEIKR
B18: Trastuzumab HCDR3 variant TRYGYGYYYMDY (Fab, V domains shown)
VH: EVQLVESGGGLVQPGGSLRLSCAASGFNIKDTYIHWVRQAPGKGLEWVARIYPTNGYTRYADSVKGRFTISADTSKNTAYLQMNSLRAEDTAVYYCTRYGYGYYYMDYWGQGTLVTVSS
VL: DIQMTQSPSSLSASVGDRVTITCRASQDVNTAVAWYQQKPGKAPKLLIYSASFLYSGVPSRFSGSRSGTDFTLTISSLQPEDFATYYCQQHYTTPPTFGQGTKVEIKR
B19: Trastuzumab HCDR3 variant VTYGTTYYHFGS (Fab, V domains shown)
VH: EVQLVESGGGLVQPGGSLRLSCAASGFNIKDTYIHWVRQAPGKGLEWVARIYPTNGYTRYADSVKGRFTISADTSKNTAYLQMNSLRAEDTAVYYCVTYGTTYYHFGSWGQGTLVTVSS
VL: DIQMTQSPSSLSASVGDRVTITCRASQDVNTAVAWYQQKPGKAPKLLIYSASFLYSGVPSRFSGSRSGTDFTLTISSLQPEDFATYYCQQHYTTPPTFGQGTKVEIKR
B20: Trastuzumab HCDR3 variant VRWRSDFYYFDY (Fab, V domains shown)
VH: EVQLVESGGGLVQPGGSLRLSCAASGFNIKDTYIHWVRQAPGKGLEWVARIYPTNGYTRYADSVKGRFTISADTSKNTAYLQMNSLRAEDTAVYYCVRWRSDFYYFDYWGQGTLVTVSS
VL: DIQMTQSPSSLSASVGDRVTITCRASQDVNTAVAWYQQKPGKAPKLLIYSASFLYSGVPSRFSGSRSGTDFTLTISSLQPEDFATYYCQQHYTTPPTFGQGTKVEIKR
B21: Trastuzumab HCDR3 variant VRYGYDYYWFDY (Fab, V domains shown)
VH: EVQLVESGGGLVQPGGSLRLSCAASGFNIKDTYIHWVRQAPGKGLEWVARIYPTNGYTRYADSVKGRFTISADTSKNTAYLQMNSLRAEDTAVYYCVRYGYDYYWFDYWGQGTLVTVSS
VL: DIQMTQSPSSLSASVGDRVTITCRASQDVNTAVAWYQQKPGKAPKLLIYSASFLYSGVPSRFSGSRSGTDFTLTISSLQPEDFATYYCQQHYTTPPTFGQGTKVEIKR
B22: Trastuzumab HCDR3 variant VRYGYGYYYFDY (Fab, V domains shown)
VH: EVQLVESGGGLVQPGGSLRLSCAASGFNIKDTYIHWVRQAPGKGLEWVARIYPTNGYTRYADSVKGRFTISADTSKNTAYLQMNSLRAEDTAVYYCVRYGYGYYYFDYWGQGTLVTVSS
VL: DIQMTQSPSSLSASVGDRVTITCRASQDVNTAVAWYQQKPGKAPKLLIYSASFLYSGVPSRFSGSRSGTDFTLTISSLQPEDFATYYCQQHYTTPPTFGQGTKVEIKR
B23: Trastuzumab HCDR3 variant VRYGGGYYYFDV (Fab, V domains shown)
VH: EVQLVESGGGLVQPGGSLRLSCAASGFNIKDTYIHWVRQAPGKGLEWVARIYPTNGYTRYADSVKGRFTISADTSKNTAYLQMNSLRAEDTAVYYCVRYGGGYYYFDVWGQGTLVTVSS
VL: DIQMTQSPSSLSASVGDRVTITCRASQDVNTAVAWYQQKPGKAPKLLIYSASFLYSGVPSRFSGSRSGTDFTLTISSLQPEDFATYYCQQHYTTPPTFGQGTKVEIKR
B24: Trastuzumab HCDR3 variant VRYGYGYYYMDY (Fab, V domains shown)
VH: EVQLVESGGGLVQPGGSLRLSCAASGFNIKDTYIHWVRQAPGKGLEWVARIYPTNGYTRYADSVKGRFTISADTSKNTAYLQMNSLRAEDTAVYYCVRYGYGYYYMDYWGQGTLVTVSS
VL: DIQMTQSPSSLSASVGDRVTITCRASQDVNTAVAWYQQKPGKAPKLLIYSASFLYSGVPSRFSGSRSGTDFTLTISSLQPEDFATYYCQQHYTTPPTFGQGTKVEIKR
B25: Trastuzumab HCDR3 variant VRYGGDYYYFDY (Fab, V domains shown)
VH: EVQLVESGGGLVQPGGSLRLSCAASGFNIKDTYIHWVRQAPGKGLEWVARIYPTNGYTRYADSVKGRFTISADTSKNTAYLQMNSLRAEDTAVYYCVRYGGDYYYFDYWGQGTLVTVSS
VL: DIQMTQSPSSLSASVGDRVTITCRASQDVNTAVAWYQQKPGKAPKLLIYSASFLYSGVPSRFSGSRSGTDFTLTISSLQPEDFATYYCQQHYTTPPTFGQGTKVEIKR
B26: Trastuzumab HCDR3 variant VRYGGTYYYFDY (Fab, V domains shown)
VH: EVQLVESGGGLVQPGGSLRLSCAASGFNIKDTYIHWVRQAPGKGLEWVARIYPTNGYTRYADSVKGRFTISADTSKNTAYLQMNSLRAEDTAVYYCVRYGGTYYYFDYWGQGTLVTVSS
VL: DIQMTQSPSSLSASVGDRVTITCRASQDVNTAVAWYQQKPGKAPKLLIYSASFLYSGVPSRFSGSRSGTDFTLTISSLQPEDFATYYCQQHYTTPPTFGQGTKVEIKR
B27: Trastuzumab HCDR3 variant VRWGGYYYYFDY (Fab, V domains shown)
VH: EVQLVESGGGLVQPGGSLRLSCAASGFNIKDTYIHWVRQAPGKGLEWVARIYPTNGYTRYADSVKGRFTISADTSKNTAYLQMNSLRAEDTAVYYCVRWGGYYYYFDYWGQGTLVTVSS
VL: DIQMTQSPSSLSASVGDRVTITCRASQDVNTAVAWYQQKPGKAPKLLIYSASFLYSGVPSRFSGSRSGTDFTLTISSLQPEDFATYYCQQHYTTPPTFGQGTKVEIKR
B28: Trastuzumab HCDR3 variant TRYYYGLYYFDY (Fab, V domains shown)
VH: EVQLVESGGGLVQPGGSLRLSCAASGFNIKDTYIHWVRQAPGKGLEWVARIYPTNGYTRYADSVKGRFTISADTSKNTAYLQMNSLRAEDTAVYYCTRYYYGLYYFDYWGQGTLVTVSS
VL: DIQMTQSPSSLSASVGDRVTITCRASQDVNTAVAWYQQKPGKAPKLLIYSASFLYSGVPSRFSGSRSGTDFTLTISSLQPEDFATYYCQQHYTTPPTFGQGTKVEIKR
B29: Trastuzumab HCDR3 variant VRYGYGYYAMDY (Fab, V domains shown)
VH: EVQLVESGGGLVQPGGSLRLSCAASGFNIKDTYIHWVRQAPGKGLEWVARIYPTNGYTRYADSVKGRFTISADTSKNTAYLQMNSLRAEDTAVYYCVRYGYGYYAMDYWGQGTLVTVSS
VL: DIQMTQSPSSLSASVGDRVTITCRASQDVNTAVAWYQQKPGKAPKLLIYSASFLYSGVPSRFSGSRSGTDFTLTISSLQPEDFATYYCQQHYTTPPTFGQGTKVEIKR

Values joined by “and” are separate entries in the source; they are usually repeats but may differ in a detail not shown here. Identical values can stand only once.

For the assay, the target named is T1, HER2 (human epidermal growth factor receptor 2) (human, UniProt P04626 23-629).
T1 construct: also called Antigen: HER2
Briefly: SPR. (In general: SPR reads the build-up and loss of mass on a sensor chip optically.)
Take B1: the Kd worked out at 14 nM and the “log(KD (M))” value is -7.85.

Turning to B2, binding was put at a Kd of 15.4 nM and the “log(KD (M))” value was -7.81.

For B3, the Kd stood at 27 nM and the “log(KD (M))” value is -7.57.

As to B4, the dissociation constant (Kd) is 25.2 nM and the “log(KD (M))” value is -7.6.

On to B5, for which the Kd stood at 13.9 nM and the “log(KD (M))” value was -7.86.

Take B6: the affinity, expressed as Kd, was 10.1 nM and the “log(KD (M))” value was -7.99.

B7: the Kd was found to be 20.5 nM and the “log(KD (M))” value is -7.69.

Turning to B8, the Kd is 17 nM and 16.9 nM; the “log(KD (M))” value is -7.77.

For the molecule B9, binding was put at a Kd of 8.08 nM and the “log(KD (M))” value is -8.09.

Consider B10, for which binding was characterised by a dissociation constant (Kd) of 8.41 nM and the “log(KD (M))” value was -8.08.

For the molecule B11, the Kd was 14.1 nM and the “log(KD (M))” value was -7.85.

Take B12: the Kd was 9.24 nM and the “log(KD (M))” value was -8.03.

Take B13: the Kd is 3.99 nM and the “log(KD (M))” value was -8.4.

For the molecule B14, the Kd came to 14.9 nM and the “log(KD (M))” value is -7.83.

Take B15: the Kd was 8.78 nM and the “log(KD (M))” value was -8.06.

In the case of B16, the Kd stood at 17.5 nM and the “log(KD (M))” value was -7.76.

Take B17: the equilibrium dissociation constant (Kd) is 23.1 nM and the “log(KD (M))” value is -7.64.

B18: binding was characterised by a dissociation constant (Kd) of 5.25 nM and the “log(KD (M))” value was -8.28.

On to B19, for which the affinity, expressed as Kd, was 24.1 nM and the “log(KD (M))” value was -7.62.

For the molecule B20, binding was characterised by a dissociation constant (Kd) of 4.95 nM and the “log(KD (M))” value was -8.31.

Take B21: the Kd was 10.4 nM and the “log(KD (M))” value is -7.98.

Turning to B22, the Kd came out at 2.77 nM and the “log(KD (M))” value is -8.56.

Regarding B23, the affinity, expressed as Kd, was 3.96 nM and the “log(KD (M))” value was -8.4.

In the case of B24, binding was put at a Kd of 5.48 nM and the “log(KD (M))” value is -8.26.

Regarding B25, the Kd amounted to 21.9 nM and the “log(KD (M))” value was -7.66.

Turning to B26, binding was put at a Kd of 15.4 nM and the “log(KD (M))” value was -7.81.

Turning to B27, the Kd was determined as 6.35 nM and the “log(KD (M))” value is -8.2.

As for B28, the Kd worked out at 3.02 nM and the “log(KD (M))” value was -8.52.

On to B29, for which the dissociation constant (Kd) came to 10.7 nM and the “log(KD (M))” value is -7.97.

By Kd is commonly meant the free concentration of one partner at which half of the binding sites on the other are occupied at equilibrium, for simple one-to-one binding. A low value points to tighter binding.

The values are drawn from US20250218531A1 (ABSCI, published 2025).
